Data on 5 molecules can be found in patent publication US20260365743 (published 2026).

Assay in all cases: ELISA
For orientation: ELISA stands for enzyme-linked immunosorbent assay.

One experiment has as its target hNPR1 antigen (human).
Another experiment has as its target T1, hNPR2 (human, UniProt P20594).
T1 chain: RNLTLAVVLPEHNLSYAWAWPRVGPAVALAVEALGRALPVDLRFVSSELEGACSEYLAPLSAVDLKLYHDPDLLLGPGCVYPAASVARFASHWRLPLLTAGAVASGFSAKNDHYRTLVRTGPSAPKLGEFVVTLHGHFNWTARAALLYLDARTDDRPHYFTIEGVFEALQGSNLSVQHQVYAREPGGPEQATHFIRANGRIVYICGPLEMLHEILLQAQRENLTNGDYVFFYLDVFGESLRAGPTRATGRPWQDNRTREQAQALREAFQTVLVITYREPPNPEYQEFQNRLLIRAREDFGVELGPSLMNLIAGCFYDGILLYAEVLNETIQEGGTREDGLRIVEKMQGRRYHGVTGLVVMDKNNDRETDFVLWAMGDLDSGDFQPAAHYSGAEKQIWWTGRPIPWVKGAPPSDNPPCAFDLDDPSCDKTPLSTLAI

A further experiment deals with T2, hNPR3 (human, UniProt P17342).
T2 chain: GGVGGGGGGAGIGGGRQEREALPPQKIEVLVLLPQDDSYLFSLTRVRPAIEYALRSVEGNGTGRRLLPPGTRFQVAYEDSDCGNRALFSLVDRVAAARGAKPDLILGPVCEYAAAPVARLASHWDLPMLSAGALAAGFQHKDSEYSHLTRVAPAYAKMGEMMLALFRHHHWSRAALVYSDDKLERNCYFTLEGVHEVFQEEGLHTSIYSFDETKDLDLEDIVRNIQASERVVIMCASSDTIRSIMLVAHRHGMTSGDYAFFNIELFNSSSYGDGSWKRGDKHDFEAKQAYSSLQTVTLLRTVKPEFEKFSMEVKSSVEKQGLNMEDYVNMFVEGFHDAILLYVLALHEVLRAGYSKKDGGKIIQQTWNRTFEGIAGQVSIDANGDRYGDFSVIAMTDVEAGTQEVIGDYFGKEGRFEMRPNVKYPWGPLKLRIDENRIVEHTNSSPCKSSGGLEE

Chain of hNPR1 antigen (human) (chain, as listed by the source): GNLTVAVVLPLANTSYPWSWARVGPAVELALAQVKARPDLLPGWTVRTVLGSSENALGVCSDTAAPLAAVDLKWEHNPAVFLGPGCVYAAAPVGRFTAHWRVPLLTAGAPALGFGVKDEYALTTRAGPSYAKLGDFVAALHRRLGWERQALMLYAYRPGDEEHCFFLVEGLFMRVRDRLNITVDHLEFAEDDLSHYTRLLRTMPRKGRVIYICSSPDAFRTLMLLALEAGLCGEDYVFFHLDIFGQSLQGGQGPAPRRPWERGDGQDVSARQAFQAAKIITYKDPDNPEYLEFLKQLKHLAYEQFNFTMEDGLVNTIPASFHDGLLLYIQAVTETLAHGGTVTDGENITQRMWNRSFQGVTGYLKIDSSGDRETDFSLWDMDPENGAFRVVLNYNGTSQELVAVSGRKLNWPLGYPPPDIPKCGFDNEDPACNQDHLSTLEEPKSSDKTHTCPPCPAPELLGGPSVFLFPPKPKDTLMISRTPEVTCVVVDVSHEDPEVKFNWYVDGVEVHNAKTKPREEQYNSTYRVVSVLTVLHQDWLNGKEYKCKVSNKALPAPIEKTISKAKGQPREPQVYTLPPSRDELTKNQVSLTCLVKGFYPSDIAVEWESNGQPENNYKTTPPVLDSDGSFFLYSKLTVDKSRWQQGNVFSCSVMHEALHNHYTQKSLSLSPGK

B1: RC25 V (antibody, V domains shown)
VH: QVQLVQSGAEVKKPGASVKVSCKASGYTFTNSWIGWFRQAPGQGLEWIGDIYPGGGYTNYNEIFKGKATMTADTSTNTAYMELSSLRSEDTAVYYCSRGIPGYAMDYWGQGTLVTVSS
VL: DIQMTQSPSSLSASVGDRVTMSCKSSQSLLNSGDQKNYLTWYQQKPGKAPKLLIYWASTGESGVPSRFSGSGSGTDFTFTISSLQPEDIATYYCQNDYSYPWTFGQGTKVEIKR
Consider B1, for which the binding result in the experiment with hNPR1 antigen, with hNPR2 and with hNPR3 was “no binding” each time.

B2: Hu135H3L1 (antibody, V domains shown)
VH: DVKLVESGEGLVKPGGSLRLSCAASGFSISTYGMSWVRQAPGKRLEWVAYINSGGNYIYYADSVKGRFTISRDNAKNSLYLQMNSLRAEDTAVYYCTRDRTTIVVHWYFDVWGQGTTVTVSS
VL: DIQLTQSPSSLSASVGDRVTITCSASSSLNFMHWYQQKPGKSPKRWIYDTSKLASGVPSRFSGSGSGTDYTLTISSLQPEDFATYYCHQRSSTFGGGTKVEIK
With B2, the binding result with hNPR2 and with hNPR3 was “no binding” in each case.

B3: Hu102H4L6 (antibody, V domains shown)
VH: DVKLVESGEGLVKPGGSLRLSCAASGFTFSSYAMSWVRQAPGKRLEWVAYISRGGDYIYYADSVKGRFTISRDNAKNSLYLQMNSLRAEDSAVYYCTRDQTTVVVHWYFDVWGQGTTVTVSS
VL: DIQLTQSPSSLSASVGDRVTITCSASSSINYMHWYQQKPGKSPKRWIYDTSKLASGVPSRFSGSGSGTDYTLTISSLQPEDFATYYCHQRNSYTFGGGTKVEIK
On to B3, for which the binding result in the experiment with hNPR2 and in the experiment with hNPR3 was “no binding” throughout.

B4: Hu128H3L1-6 (antibody, V domains shown)
VH: EVQLVQSGAEVKKPGASVKVSCKASGYTFTSYWMHWVRQAPGQGLEWMGRIDPNSGVTKYNEKFKSRVTLTVDKPSSPAYMELSSLRSEDTAVYYCARSSYLGRYFDVWGQGTTVTVSS
VL: EIVLTQSPATLSLSPGERATLKCSATSSVSYMYWYQQKPGQAPRLLIYDTYNLGSRIPARFSGSGSGTDYTLTISRLEPEDFAVYYCQQWSSYPPTFGQGTKLEIK
As to B4, the binding result in the experiment with hNPR2 and in the experiment with hNPR3 was “no binding” each time.

B5: Hu140H5L5-11 (antibody, V domains shown)
VH: QVQLVQSGAEVKKPGASVKVSCKASGYTFTSYWMHWVRQAPGQGLEWMGRIDPNSGVTKYNEKFKSRVTLTVDKPSSPAYMELSSLRSEDTAVYYCARSGGLRRYFDVWGQGTTVTVSS
VL: EIVLTQSPATLSLSPGERAQLSCSASSSVSYMYWYQQKPGQAPRLLIYDTYNLASGVPDRFSGSGSGTSYTLTISRLEPEDFAVYYCQQWSSYPPTFGAGTKLEIK
As for B5, the binding result with hNPR2 and in the experiment with hNPR3 was “no binding” each time.
